The values below come from patent US10040853B2, “Methods and compositions involving NKG2D inhibitors and cancer” (Fred Hutchinson Cancer Research Center, priority 2011, dated 2018).

What all share (assay type): cell-based, human
For data set [1], the system named is MCF-7-TF cells. Kind of data set: Cell cycle analysis by propidium iodide staining. To be noted: MCF-7-TF cells plated 24 h at near confluence without growth factors; Abs each 10 μg/ml. The protocol:
DNA contents were determined with 70% EtOH-permeabilized and fixed cells treated with PI/RNase staining buffer (BD Pharmingen). Prior to analysis, cells were plated for 24 h in the presence or absence of each 10 μg/ml anti-MIC and -ULBP3 and -ULBP4 mAb or control Ig. Flow cytometry data were analysed using FlowJo cell cycle software with quantitative analysis based on Dean-Jett-Fox model curve fitting. Cellular ATP was determined using the ATPlite luminescence assay system (PerkinElmer). Real-time oxygen consumption and extracellular acidification rates were measured employing the Seahorse Bioscience Extracellular Flux Analyzer XF24 with cells (3×10^4) seeded in custom 24-well plates and grown overnight (34). Metabolic rates were calculated from multiple measurements in buffer-free medium within one h at 37° C. Differences in cell growth rates were accounted for by using fluorescence emission values of Hoechst stainings to calculate normalization factors for cell number corrections.
The inventors thus explored effects on cellular functions resulting from NKG2D stimulation using the MCF-7 mock-transfected control and MCF-7-TF model cells. Cells were plated at near confluence in the absence of growth factors with or without the relevant anti-MIC and anti-ULBP1/3/4 Abs or control Ig 24 h before assay time (FIG. 7). […]

Data set [2] deals with AKT(S473) phosphorylation. Kind of data set: Inducible AKT phosphorylation in siRNA-transduced MCF-7 cells. To be noted: lentiviral siRNA transduction. The source says: (§1) NKG2D was immunoprecipitated from standard NP-40 buffer lysates of FACSAria-sorted EpCAM^+CD45^− cancer cells (˜5×10^6 per lane), tumor lines (˜5×10^7 cells; 2×10^7 cells with BT-20), and transfectants (5×10^6 cells) using mAb 5C6 immobilized on AminoLink Plus Coupling Resin (Pierce). DAP10 was immunoprecipitated using rabbit polyclonal antibodies (FL-93; Santa Cruz Biotechnology). Immunoblots were probed with polyclonal antibodies to NKG2D or DAP10 (N-20 and N-17; Santa Cruz Biotechnology), or Grb2 (Cell Signaling Technology) and developed using secondary reagents and Supersignal West Dura Extended Duration Substrate (Pierce). Immunoprecipitation and immunoblot detection of mouse NKG2D utilized a rat mAb (clone 191004; R&D Systems) and goat polyclonal reagent (H-15; Santa Cruz Biotechnology), respectively. […] Phosphoproteins and protein controls were detected using rabbit polyclonal antibodies (to P-mTOR, P-S6K1, and P-4E-BP1), mAbs (clones 7C10, 236B4, and 53H11), and anti-rabbit IgG-HRP (all from Cell Signaling Technology). MAPKs were detected with cells grown to semi-confluence in 6-well plates and desensitized for 24 h. […]

For the next data set, the system named is NKG2D. Put plainly: NKG2D protein depletion by siRNA (immunoblot). To be noted: CD8 T cells, 2×10^6 per lane.
Description: as §1

The test system of data set [3] is MCF-7-TF cells. Kind of data set: EMT-like phenotype of MCF-7-TF cells (phase contrast, IF microscopy, immunoblot). The source says:
Diagnostic of EMT, among other criteria, are reduced expression of E-cadherin and induction of N-cadherin (Polyak and Weinberg, 2009; Thiery et al., 2009; Yang and Weinberg, 2008). […] Among key transcription factors is SNAI1 and Twist, which were induced in MCF-7-TF as well as in MCF-10A-TF and SUM149PT-TF cells (FIG. 8C). MCF-7-TF cells also scored increased migratory and invasive activities in Matrigel assays (FIG. 8D). Both ERK- and AKT-initiated signaling have been implicated in cancer EMT (Thiery et al., 2009).

Data set [4] deals with MCF-7-TF cells. Kind of data set: Migration through porous filters and invasion in Matrigel assay. The protocol:
MCF-7 cells were evaluated for stimulation of cellular migration through porous filters and for invasion of reconstituted basement membranes in MATRIGEL assays (FIG. 10).

B1: RNAi targeting of NKG2D: lentivirally expressed hairpin siRNA targeting NKG2D (KLRK1) mRNA positions 690-710; oligonucleotides SEQ ID NO:19 and 20 (nucleic acid, listed as Homo sapiens)
chain 1: CTAGACCCAACCTACTAACAATAATTTCAAGAGAATTATTGTTAGTAGGTTGGGTTTTTGAT
chain 2: ATCAAAAAACCCAACCTACTAACAATAATTCTCTTGAAATTATTGTTAGTAGGTTGGGT
modifications: the letters are possibly those of the target site
As to B1, the “effect on enlarged proportions of cells in S and G2 phase” value in the data set with MCF-7-TF cells [1] is on record as “reversed”. Besides, in data set [2], the “inducible AKT(S473) phosphorylation” value was “Absence of inducible AKT(S473) phosphorylation”. In the data set with NKG2D, the “depletion of NKG2D” value is reported as “depletion”. For the same molecule, in the data set on MCF-7-TF cells [3] (IF microscopy and immunoblot), the “changes in epithelial and mesenchymal marker proteins (E-cadherin, N-cadherin)” value is “reversed”. Moreover, in the data set with MCF-7-TF cells [3] (phase contrast microscopy), the cell morphology result was “restored the parental cell morphology”. The “migratory and invasive activities” value in the data set on MCF-7-TF cells [4] is “suppressed”.
